Assays:
[1] = target: cynomolgus monkey MASP-2 of cynomolgus monkey serum (cynomolgus monkey); assay: cell-based or functional assay
[2] = target: Fc-hMASP-2A-CCS (human) [IgG part: P01857]; assay: ELISA according to Example 5, plate coated with Fc-hMASP-2A-CCS
Chain of Fc-hMASP-2A-CCS (human) [IgG part: P01857] (P01857 other isoform, or with tags, fused parts or gaps limits assumed, form in doubt): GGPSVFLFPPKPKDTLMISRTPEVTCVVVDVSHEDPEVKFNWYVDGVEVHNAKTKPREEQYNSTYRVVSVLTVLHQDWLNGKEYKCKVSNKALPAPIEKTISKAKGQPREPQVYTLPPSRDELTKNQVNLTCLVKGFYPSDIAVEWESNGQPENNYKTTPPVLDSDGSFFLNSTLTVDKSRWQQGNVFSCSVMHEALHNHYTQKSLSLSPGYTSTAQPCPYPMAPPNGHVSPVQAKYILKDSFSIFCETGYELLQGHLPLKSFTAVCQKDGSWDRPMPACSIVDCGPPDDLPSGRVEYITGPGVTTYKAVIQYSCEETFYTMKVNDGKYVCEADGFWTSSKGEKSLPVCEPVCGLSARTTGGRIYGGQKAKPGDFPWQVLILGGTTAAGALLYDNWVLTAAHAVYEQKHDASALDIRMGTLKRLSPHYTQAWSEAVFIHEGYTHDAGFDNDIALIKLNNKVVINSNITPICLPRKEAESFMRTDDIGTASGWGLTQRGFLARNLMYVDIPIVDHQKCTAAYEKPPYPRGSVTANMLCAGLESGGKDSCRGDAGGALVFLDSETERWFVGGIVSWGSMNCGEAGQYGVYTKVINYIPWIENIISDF

Narsoplimab (antibody)
IC50 of inhibition of MASP-2-catalyzed C4 cleavage in 90% cynomolgus monkey serum [1]: 94 nM | EC50 [2]: 0.227 nM

Reference: patent US20240043563A1
